Test [1] deals with T1, Human Macrophage Receptor with Collagenous Structure (MARCO), full length, on cells (human, UniProt Q9UEW3 1-520).
T1 construct: the cell type is named under assay; also called huMARCO; HuMARCO
T1 sequence: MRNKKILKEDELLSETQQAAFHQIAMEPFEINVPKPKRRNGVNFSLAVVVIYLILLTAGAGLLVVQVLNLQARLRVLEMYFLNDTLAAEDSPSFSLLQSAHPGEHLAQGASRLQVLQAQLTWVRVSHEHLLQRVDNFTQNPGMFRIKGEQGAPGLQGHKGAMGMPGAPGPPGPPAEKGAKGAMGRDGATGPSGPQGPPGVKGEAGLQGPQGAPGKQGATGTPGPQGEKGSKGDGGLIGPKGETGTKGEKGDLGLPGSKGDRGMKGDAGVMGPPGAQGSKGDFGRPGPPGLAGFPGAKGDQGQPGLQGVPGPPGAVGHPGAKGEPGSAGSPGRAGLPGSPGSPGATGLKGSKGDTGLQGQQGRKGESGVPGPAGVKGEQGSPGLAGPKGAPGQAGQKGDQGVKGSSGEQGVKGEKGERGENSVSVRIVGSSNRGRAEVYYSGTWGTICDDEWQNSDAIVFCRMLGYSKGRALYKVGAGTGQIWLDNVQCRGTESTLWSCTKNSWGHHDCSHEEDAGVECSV
As to the kind of experiment: cell-based competition with AF488 E. coli binding to cells expressing MARCO. How it is done: Zombie NIR viability dye (BioLegend), prepared by diluting the stock 1000-fold in D-PBS, was added to the cells and incubated for 10 min at RT in the dark. The reaction was quenched by adding 1 m of 4× Staining buffer (2% FBS in DBPS containing Ca2+), followed by centrifugation at 400×g for 5 min at 4° C. Cells were then plated in V-shaped 96 well plates at a density of 100,000 cells. A488-fluorescently labeled bacteria (E. coli from Invitrogen) was added at 10 μg/ml with the anti-human MARCO antibodies of interest for a 30 min incubation at 37 C. Plates were then washed twice followed by resuspension in 100 ul of staining buffer for acquisition on the flow cytometer (Attune NxT, Life Technologies). Flow cytometry data were analyzed using FlowJo software (version 10.6.1) and data were processed and further analyzed in Microsoft Excel and GraphPad Prism software (version 8).

Test [2] concerns the target T2, Cynomolgus MARCO, full length, on cells (cynomolgus, UniProt A0A2K5X0Z2 1-519).
T2 construct: whole, on cells; also called cyno MARCO; CyMARCO
T2 sequence: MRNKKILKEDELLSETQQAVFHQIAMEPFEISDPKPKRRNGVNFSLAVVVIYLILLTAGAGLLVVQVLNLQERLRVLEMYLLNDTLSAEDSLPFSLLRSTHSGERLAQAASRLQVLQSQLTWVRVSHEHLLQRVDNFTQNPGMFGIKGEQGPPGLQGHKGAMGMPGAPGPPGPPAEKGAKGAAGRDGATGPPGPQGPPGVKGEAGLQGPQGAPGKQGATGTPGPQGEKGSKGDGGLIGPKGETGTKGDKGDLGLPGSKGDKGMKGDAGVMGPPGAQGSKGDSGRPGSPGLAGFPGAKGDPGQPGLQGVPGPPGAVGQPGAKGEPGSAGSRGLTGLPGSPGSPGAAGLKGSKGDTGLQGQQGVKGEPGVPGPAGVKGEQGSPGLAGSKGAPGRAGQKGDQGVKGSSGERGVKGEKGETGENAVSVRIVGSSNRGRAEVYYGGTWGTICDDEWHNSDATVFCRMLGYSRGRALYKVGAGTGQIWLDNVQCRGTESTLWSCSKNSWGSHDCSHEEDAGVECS
As to the kind of experiment: flow cytometry, cells overexpressing cyno MARCO. (In general: A flow cytometer gives signals particle by particle.)

Test [3] concerns the target T3, recombinant cynomolgus MARCO protein (cynomolgus, UniProt A0A2K5X0Z2 65-519).
T3 construct: Construct not described; also called cyno MARCO; cynoMARCO
T3 sequence: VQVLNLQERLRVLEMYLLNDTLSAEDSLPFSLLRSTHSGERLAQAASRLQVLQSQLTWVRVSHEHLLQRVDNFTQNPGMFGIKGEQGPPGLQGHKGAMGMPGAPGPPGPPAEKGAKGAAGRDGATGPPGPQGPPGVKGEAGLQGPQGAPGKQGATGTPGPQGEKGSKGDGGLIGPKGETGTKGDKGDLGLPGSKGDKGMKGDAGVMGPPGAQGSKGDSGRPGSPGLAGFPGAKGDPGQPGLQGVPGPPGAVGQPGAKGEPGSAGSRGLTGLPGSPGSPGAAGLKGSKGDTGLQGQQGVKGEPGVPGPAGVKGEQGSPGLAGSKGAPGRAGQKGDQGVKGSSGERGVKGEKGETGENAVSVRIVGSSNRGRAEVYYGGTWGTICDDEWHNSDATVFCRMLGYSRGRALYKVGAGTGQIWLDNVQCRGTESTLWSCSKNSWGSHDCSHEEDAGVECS
The test can be described thus: SPR, single cycle (sc). In general terms: Surface plasmon resonance follows binding to a sensor surface in real time, without labels.

The target in test [4] is T4, N-terminally polyhistidine tagged human MARCO ECD (147-520), recombinant (human, UniProt Q9UEW3 147-520).
T4 construct: also called PI-RG-3000; recombinant human MARCO; not shown: N-terminal polyhistidine tag
T4 sequence: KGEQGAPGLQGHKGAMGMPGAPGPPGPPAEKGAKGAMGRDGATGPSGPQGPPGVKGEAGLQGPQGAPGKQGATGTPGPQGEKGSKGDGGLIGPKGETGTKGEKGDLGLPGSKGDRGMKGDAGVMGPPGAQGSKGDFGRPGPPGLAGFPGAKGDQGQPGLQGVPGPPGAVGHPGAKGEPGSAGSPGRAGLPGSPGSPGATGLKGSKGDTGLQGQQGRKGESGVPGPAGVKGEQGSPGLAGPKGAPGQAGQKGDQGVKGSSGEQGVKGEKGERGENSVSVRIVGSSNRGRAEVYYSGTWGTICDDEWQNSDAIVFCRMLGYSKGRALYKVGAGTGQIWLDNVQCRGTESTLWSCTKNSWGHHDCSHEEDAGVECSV
The test can be described thus: SPR, single cycle (sc).

Test [5] addresses T1, Human Macrophage Receptor with …. The test can be described thus: flow cytometry, cells overexpressing human MARCO.
Test [6] concerns the target T4, N-terminally polyhistidine tagged human …. As to the kind of experiment: ELISA on hMARCO ECD with 2 mM Ca2+, A450-A620. For orientation: An ELISA detects its analyte on a solid surface through an enzyme-linked reagent.
Test [7] shares this target. As to the kind of experiment: ELISA readout A450-A620; the panel names no target, the legend says MARCO expressing cells; stable transfection pools.
Test [8] has the same target. The test can be described thus: Biacore; sample stressed 40 C 2 week. As for the experimental part:
Binding of the stressed samples to recombinant human MARCO was assessed by Biacore.

For test [9] the target is unchanged. The test can be described thus: Biacore; deamidation stress sample (40 C 2 week).
The target in test [10] is T2, Cynomolgus MARCO, full length, on cells. As to the kind of experiment: flow cytometry, cells overexpressing cyno MARCO; cyn (second of hu/cyn).
In test [11] the target is T4, N-terminally polyhistidine tagged human …. The test can be described thus: Biacore, recombinant human MARCO; control sample.
Test [12] has the same target. The test can be described thus: Biacore; isomerization/fragmentation stress sample.
Test [13] has the same target. The test can be described thus: Biacore (SPR), recombinant human MARCO. Put shortly:
(§1)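 Binding kinetics and affinity of antibodies for the N-terminally His-tagged human MARCO extracellular domain (147-520) were determined by surface plasmon resonance with multi-cycle kinetics on a Biacore T200. The antibodies were captured on a CM4 chip carrying amine-coupled anti-mouse Fc mAb (4500 RU target), and the runs were done at 25° C in 10 mM HEPES pH 7.4, 150 mM NaCl, 3 mM EDTA, 0.05% surfactant P20. The analyte was injected at 0.625–10 nM with 90 s association and 600 s dissociation, and the constants were fitted in BIAevaluation 3.1.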

Test [14] has the same target. The test can be described thus: ELISA readout A450-A620; the panel names no target, the legend says MARCO expressing cells; transiently made reference antibody.
The target of test [15] is T1, Human Macrophage Receptor with …. As to the kind of experiment: flow cytometry, cells overexpressing human MARCO; hu (first of hu/cyn).
In test [16] the target is T4, N-terminally polyhistidine tagged human …. The test can be described thus: Biacore (SPR), binding affinity to human MARCO. Put shortly: as §1
Test [17] concerns the target T3, recombinant cynomolgus MARCO protein. The test can be described thus: Biacore (SPR), recombinant cyno MARCO.
Test [18] concerns the target T4, N-terminally polyhistidine tagged human …. The test can be described thus: ELISA on hMARCO ECD with 2 mM EDTA, A450-A620.

The values that follow come from patent US20220153832A1 (PIONYR IMMUNOTHERAPEUTICS, published 2022).

The term EC50 denotes the concentration giving half of the maximal effect. One may read the Kd as the concentration at which binding is half-saturated. In general, EC50 (read off the curve) refers to the concentration giving half of the maximal effect. In general, koff refers to the first-order rate constant of dissociation.

Residue numbers refer to the chain shown, from its start.

B1: PI-3012-AB (antibody, human IgG1, kappa, V domains shown)
VH: QVQLQESGPGLVKPSETLSLTCTVSGFSLTSYHVSWVRQPPGKGLEWIGAIWTGGSIAYNPSLKSRVTISRDTSKNQVSLKLSSVTAADTAVYYCARDLSDYYSSYTSFDYWGQGTLVTVSS
VL: DIQMTQSPSSLSASVGDRVTITCRASEGISNDLAWYQQKPGKAPKLLIYAASRLQSGVPSRFSGSGSGTDYTLTISSLQPEDFATYYCQQSYKYPLTFGQGTKLEIKR
For the molecule B1, the EC50 in [1] is 0.12 nM; in test [2], 1.4 nM; in test [5] it was 0.57 nM. For the same molecule, the Kd in test [3] was 0.735 nM; in test [4], 1.13 nM.

B2: PI-3025-AB (antibody, human IgG1, kappa)
heavy: not shown
light: DIQMTQSPSSLSASVGDRVTITCRASEGISNDLAWYQQKPGKAPKLLIYAASRLQDGVPSRFSGSGSGTDYTLTISSLQPEDFATYYCQQSYKYPLTFGQGTKLEIKRTVAAPSVFIFPPSDEQLKSGTASVVCLLNNFYPREAKVQWKVDNALQSGNSQESVTEQDSKDSTYSLSSTLTLSKADYEKHKVYACEVTHQGLSSPVTKSFNRGEC
notes: also called PI-3025-AB2
Consider B2, for which the “EC50 (read off the curve)” value in test [6] was approximately 1 nM; in test [7] it was approximately 0.2 nM; in [14], approximately 0.2 nM. Also, the Kd in test [8] was 0.58 nM; in test [9] it was 0.66 nM; in test [11], 0.54 nM; in test [12] it was 0.66 nM; in [13], 1.09 nM; in test [16] it was 1.09 nM. The equilibrium dissociation constant (Kd) in test [17] was found to be 1.79 nM. Moreover, the EC50 in test [10] was found to be 1.01 nM; in [15] it was 0.79 nM. Moreover, the koff in test [13] turned out to be 0.00043 s⁻¹.

B3: PI-3032-AB (antibody, human IgG1, kappa, V domains shown)
VH: EVQLVESGGGLVQPGGSLRLSCAASKFTFSNYGMNWIRQAPGKGLEWIALIYYNSNNKYYADSVKGRFTISRDNSKNTLYLQMNSLRAEDTAVYYCAKSLTGGSDYFDSWGQGTLVTVSS
VL: DIQMTQSPSSLSASVGDRVTITCRASKSIGTFLAWYQQKPGKAPKLLIYSGSTLESGVPSRFSGSGSGTDFTLTISSLQPEDFATYYCQQHDEYPFTFGQGTKLEIKR
notes: calcium independent
In the case of B3, the results for the half-maximal effective concentration (EC50 (read off the curve)) in test [6] and in [18] were approximately 0.9 nM and approximately 0.2 nM, respectively.

B4: PI-3041-AB (antibody, human IgG1, kappa)
heavy: not shown
light: B2 light with E27A, Y71F, L78M, L96W
notes: Humanized PI-HX-3011, hIgG1
On to B4, for which the “EC50 (read off the curve)” value in [6] was approximately 0.8 nM; in [7], approximately 0.2 nM; in [14] it was approximately 0.2 nM. The Kd is 0.36 nM in test [8]; 0.39 nM in test [9]; 0.24 nM in [11]; 0.34 nM in [12]; 0.82 nM in test [13]; 0.82 nM in [16]. In addition, the dissociation constant Kd in test [17] worked out at 1.12 nM. Moreover, the EC50 in test [10] is 1.03 nM; in test [15] it was 0.704 nM. Moreover, the koff in test [13] is 0.000334 s⁻¹.
